Series [1] in a line: In vitro fluorescence (brightness) of Spinach RNAs, mutants and flanked/fused constructs with DFHBI. The format is biochemical. Conditions: for fold brighter than the same construct fused to Spinach: in vitro. An excerpt: Preparation and Analysis of Spinach and Spinach Mutants: RNAs were created by using the appropriate single-stranded DNA templates (Integrated DNA Technologies) and PCR amplification using primers that included a 5′ T7 promoter sequence to generate double-stranded DNA templates. PCR products were then purified with PCR purification columns (Qiagen) and used as templates for in vitro T7 transcription reactions (Epicentre) as described previously (Paige et al., “RNA mimics of green fluorescent protein,” Science 333: 642-646 (2011), which is hereby incorporated by reference in its entirety). RNA was purified using ammonium acetate precipitation, and quantified using both absorbance values and the Riboquant Assay kit (BD Biosciences). Photophysical characterization of Spinach2 was carried out as previously described (Paige et al., “RNA mimics of green fluorescent protein,” Science 333: 642-646 (2011), which is hereby incorporated by reference in its entirety).
Preparation and In Vitro Analysis of Flanked Spinach and Spinach2 Constructs: Spinach and Spinach2 constructs flanked on either side by 50 base pairs were generated by PCR. For Spinach, the following primers were used:
The 50-base-pair sequences were taken from the human β-actin 3′ untranslated region. Both forward primers encode the T7 RNA polymerase promoter for in vitro transcription. 5S-Spinach and 5S-Spinach2 were amplified by PCR from pAV-5S-Spinach and pAV-5S-Spinach2, respectively, using the following primers: […]
PCR products were used as templates for in vitro transcription by Ampliscribe T7 RNA polymerase as previously described (Paige et al., “RNA mimics of green fluorescent protein,” Science 333: 642-646 (2011), which is hereby incorporated by reference in its entirety). Fluorescence measurements were recorded for 0.1 μM RNA in the presence of 10 μM DFHBI in buffer composed of 20 mM HEPES pH 7.4, 100 mM KCl and […] as described above.
Next, systematic mutagenesis was carried out to identify thermostable Spinach mutants with improved folding. Because elevated G+C content can lead to stable misfolded structures (Kiliszek et al., “Crystal Structures of CGG RNA Repeats with Implications for Fragile X-Associated Tremor Attaxia Syndrome,” Nuc. Acids Res. 39:7308-7315 (2011); Sobczak et al., “RNA Structure of Trinucleotide Repeats Associated with Human Neurological Diseases,” Nuc. Acids Res. 31:5469-5482 (2003), each of which is hereby incorporated by reference in its entirety), it was reasoned that decreasing the overall G+C content could promote proper folding. Scanning mutagenesis was carried out, mutating every […] and cytosine to adenosine or uracil, respectively. In regions where G and C residues were predicted to form a base pair, both residues were mutated to A and U, to maintain the complementarity. Each of these 35 mutants was synthesized in vitro, and the fraction folded was measured at 25° C. and 42° C. Fluorescence signals that were equal to or greater than Spinach at 25° C. indicated equal or greater percent folded. A higher percentage signal at 42° C. indicated improved thermostability relative to Spinach.

The subject of the next series is E. coli. The series is described as follows: Whole-cell fluorescence measurements of E. coli expressing Spinach or Spinach2. Type of series: cell-based, Escherichia coli. The procedure: Cloning Spinach2 for Expression in E. coli: Spinach and Spinach2 were PCR-amplified with primers containing the EagI restriction sites on both the 5′ and 3′ ends of the Spinach sequence.
Whole-Cell Fluorescence Measurements of E. coli: BL21 cells were transformed to harbor either pET28c-tRNA-Spinach or pET28c-tRNA-Spinach2, and grown in Luria broth with 100 μg/ml kanamycin to OD600 0.4 at room temperature. The cells were then induced with addition of 1 mM IPTG for 2 h at room temperature. After induction, cells were normalized for cell density and split into two aliquots. One aliquot per sample was incubated at room temperature, and the other was incubated for 20 min at 37° C. Cells were then measured for total fluorescence using a Tecan Safirell plate reader with 460±10 nm excitation and emission was recorded at 510±10 nm. Data shown represent mean and s.e.m. values for three independent experiments.

A short description of series [2]: Thermostability measurements of Spinach RNAs with DFHBI. The format is physicochemical. Conditions: fluorescence of RNA-DFHBI complex in vitro, 20-60 °C; ±s.e.m. The procedure:
Thermostability Measurements: Spinach or Spinach2 (1 μM) was incubated in 20 mM HEPES pH 7.4, 100 mM KCl, 1 mM MgCl2 and 10 μM DFHBI. Fluorescence values were recorded in 1° C. increments from 20° C. to 60° C., with a 5-min incubation at each temperature to allow for equilibration. Fluorescence measurements were performed using a PerkinElmer LS-55 fluorescence spectrometer using the following instrument parameters: excitation wavelength, 460 nm; emission wavelength, 501 nm; slit widths, 10 nm. Curves were fitted using the Boltzmann sigmoidal equation in GraphPad Prism 5 software. Values presented are mean and s.e.m. from three independent measurements.

Series [3] is described as follows: Folding assay (fraction of RNA folded, DFHBI). The format is physicochemical. The protocol: Folding Assay: The folding assay involves measurement of fluorescence under two conditions, one in which RNA is in excess relative to DFHBI, and one in which the DFHBI is in excess relative to RNA. As Spinach and DFHBI form a 1:1 stoichiometric complex, the maximum amount of complex that can be formed is determined by the limiting component. In the first condition, the fluorescence was determined by incubation of 0.1 μM DFHBI and 100-fold excess (10 μM) Spinach. This value was used to define the fluorescence of 0.1 μM Spinach-DFHBI complex. It was assumed that even if nearly all Spinach is misfolded or unfolded, there will be enough properly folded Spinach to stoichiometrically bind 0.1 μM DFHBI. This was confirmed by measuring fluorescence after doubling the RNA to 20 μM, which caused no increase in fluorescence. In the second condition, the fluorescence obtained using 10 μM DFHBI and 0.1 μM Spinach was measured. In theory, up to 0.1 μM Spinach-DFHBI can form if all the Spinach is folded. However, if a portion of Spinach is unfolded, the fluorescence will be proportionately less than the fluorescence of 0.1 μM Spinach-DFHBI. Thus, this approach can reveal the fraction of Spinach that is folded under diverse conditions.
Fluorescence was measured for each RNA under the following conditions: (i) 0.1 μM RNA and 10 μM DFHBI, and (ii) 0.1 μM DFHBI and 10 μM RNA. For each condition, the signal from DFHBI without RNA was subtracted from each signal. Fluorescence was measured in 20 mM HEPES pH 7.4, 100 mM KCl and 1 mM MgCl2 at the designated temperature. Fluorescence measurements were performed using a PerkinElmer LS-55 fluorescence spectrometer using the following instrument parameters: excitation wavelength, 460 nm; emission wavelength, 501 nm; slit widths, 10 nm. Signal from the first condition (limiting RNA) was divided by the signal from the second condition (limiting dye) to determine the fraction folded.

The nature of series [4]: Magnesium dependence of aptamer fluorescence. Type of series: physicochemical. The procedure:
To measure magnesium dependence 1 μM RNA was incubated with 10 μM 1T in 40 mM HEPES pH 7.4, 100 mM KCl buffer with different concentrations of MgCl2 and then fluorescence emission was measured on a plate reader.

B1: Spinach2: RNA aptamer SEQ ID NO: 2; Spinach1.2 variant containing all six mutations (nucleic acid)
chain: GAUGUAACUGAAUGAAAUGGUGAAGGACGGGUCCAGUAGGCUGCUUCGGCAGCCUACUUGUUGAGUAGAGUGUGAGCUCCGUAACUAGUUACAUC
modifications: listed as RNA, chemistry not given here
notes: Spinach1.2 variant containing all six mutations
B1: in series [1], the “fluorescence retained when fused to the CGG repeat-containing RNA” value was found to be 80%. Moreover, the “fold brighter than Spinach in vitro” value in series [1] (25 °C) is on record as 1.8 fold; in series [1] (37 °C) it was 2.8 fold. Also, the “brightness of flanked RNA relative to the same aptamer alone” value in series [1] (flanked by 50 nt of RNA on both 5′ and 3′ ends, 0.1 μM RNA) amounted to 90%. In addition, the “brightness of flanked Spinach2 versus flanked Spinach” value in series [1] (flanked by 50 nt of RNA on both ends) is reported as “tenfold brighter than flanked Spinach”. For the same molecule, the “fold brighter than the same construct fused to Spinach” value in series [1] (fusion with 5S RNA) was 3 fold; in series [1] (fusion with 7SK RNA) it was 6 fold; in series [1] (fusion with (CGG)60 RNA), 20 fold. The “fluorescence retained by tagged Spinach2 relative to Spinach2 alone” value in series [1] (fusions with 5S, 7SK and (CGG)60 RNA, all cases) was “more than 70%”. Besides, the “Percent Brightness (at 42° C.)” value in series [1] (percent of signal remaining at 42 °C for a given mutant) was determined as 41%. For the same molecule, in series [1] (relative to Spinach, 25 °C), the “Relative Brightness (at 25° C.)” value is 1.8. Also, the results for the “fold brighter than Spinach in Escherichia coli” value in the series with E. coli (25 °C) and with E. coli (37 °C) were 1.4 fold and 2.1 fold, respectively. In addition, in series [2], the “melting temperature (Tm)” value is 38±0.4 °C. In addition, the percentage folded was determined as 80±6.1% in series [3] (25 °C, in the presence of the tRNA (tRNA^Lys3 scaffold)); 58±4.8% in series [3] (25 °C, no tRNA scaffold); 60±5.4% in series [3] (37 °C, in the presence of the tRNA (tRNA^Lys3 scaffold)); 37±3.3% in series [3] (37 °C, no tRNA scaffold). For the same molecule, in series [4] (1 μM RNA, 10 μM DFHBI-1T), the “percent of maximal fluorescence in magnesium-free buffer” value amounted to 11%. The “magnesium concentration giving maximal fluorescence” value in series [4] (MgCl2 titration) is recorded as around 1 mM. Further, in series [4] (MgCl2 titration), the “percent of maximal fluorescence at ~300 μM magnesium” value is reported as 50%.

The values are drawn from patent publication US9664676B2, “RNA sequences that induce fluorescence of small molecule fluorophores” (Cornell University, priority 2013, dated 2017).
